We go through two molecules from patent US20220177835A1, “METHODS OF GENERATING AND ISOLATING MIDBRAIN DOPAMINE NEURONS” (MEMORIAL SLOAN-KETTERING CANCER CENTER, priority 2019, published 2022).

The test system of one assay is rodent GSK3β homologs. To be noted: cited from earlier work.
Assay [1] relates to NURR1:GFP hPSC derived mDAs. Briefly: mRNA expression in NURR1:GFP sorted mDAs (WNT-Boost vs WNT-Boost+FGF18). The assay is classed as cell-based, human. To be noted: WNT-Boost+FGF18 (day 12-day 16) vs WNT-Boost. Here is the method:
NURR1:GFP hPSCs were then cultured under WNT-Boost and WNT-boost+FGF18 (day 12-day 16) protocols. NURR1:GFP positive cells were isolated on day 25 of differentiation followed by continuous culturing until day 40. On day 40 of differentiation, these midbrain DA neurons expressed high TH along with FOXA2 (see FIG. 12).
(§1) These sorted cells were transplanted to immuno-deficient mice.

Assay [2] deals with MEL1 hPSC derived CD49e weak mDAs. Description: mRNA expression in CD49e sorted cells (WNT-Boost vs WNT-boost+FGF18). Format: cell-based, human. To be noted: WNT-boost+FGF18 (day 12-day 16) vs WNT-Boost. Here is the method: CD49e marker was tested in another hPSC line MEL1 for purifying midbrain DA neuron. Substantially pure mDA morphology was discovered in cells sorted with CD49e (Negative and/or weak expression) on day 25 of differentiation and continuously cultured for another 15 days (day 40 of differentiation) under the WNT-boost protocol and the WNT-boost+FGF18 (day 12-day 16) protocol (see FIGS. 19-20). These sorted mDAs had high TH immune-staining (see FIG. 21).

Assay [3] concerns grafted differentiated cells in mouse. Briefly: In vivo graft of differentiated cells (WNT-boost vs WNT-boost+FGF18) into intact mouse. The source says: The in vivo survival of differentiated cells generated from WNT-boost+FGF18 protocol was examined. Cells generated from WNT-boost and WNT-boost+FGF18 protocols were grafted into intact mouse […].
Assay [4] has as its system grafted NURR1:GFP sorted mDAs. Description: Transplantation of NURR1:GFP sorted mDAs to immuno-deficient mice. The assay is classed as in vivo, mouse.
Source text: as §1

Assay [5] has as its system stem-cell-derived midbrain DA neurons and precursors. Briefly: Marker expression in stem-cell-derived mDA differentiation under Wnt-Boost protocol with added FGF. The assay is classed as cell-based, human. An excerpt:
Midbrain DA neurons and precursors thereof were derived from stem cells under a Wnt-Boost protocol previously disclosed (the “7.5 M bump protocol (modification of GMP V2B)” protocol disclosed in International Publication No. WO 2016/196661, which is incorporated by reference in its entirety), which is referred to as “Wnt-Boost protocol” or “Boost protocol” hereinafter. It was discovered that EN1 expression was decreased starting from day 11 of the differentiation with Wnt-Boost protocol (see FIG. 1). Maintaining EN1 expression in the differentiated cells is important to generate mature and functional midbrain DA neurons. Thus, to maintain EN1 expression, the present example tested adding FGF8b treatment to the Wnt-Boost protocol at a late time of differentiation (see FIG. 2). Cells were contacted with FGF8b from day 9 to day 16, from day 10 to day 16, from day 11 to day 16, from day 12 to day 16, from day 13 to day 16, from day 14 to day 16, or from day 15 to day 16, in addition to the Wnt-Boost protocol, were tested. […] EN1 positive cells also expressed FOXA2 and LMX1A. […] SIX1 immuno-staining of the cells on day 30 of differentiation confirmed the mRNA results (see FIG. 5).
FGF8b, FGF17, and FGF18 were tested by being added them to the cell culture from day 12 to day 16 at a concentration of 100 ng/ml under the WNT-Boost protocol.

In the case of `Cc1c[nH]c(-c2cnc(NCCNc3ccc(C#N)cn3)nc2-c2ccc(Cl)cc2Cl)n1` [CHIR99021, 6-(2-(4-(2,4-dichlorophenyl)-5-(4-methyl-1H-imidazol-2-yl)pyrimidin-2-ylamino)ethylamino)nicotinonitrile], the “IC50 values against rodent GSK3β homologs” value with rodent GSK3β homologs is recorded as “nanomolar”.

B1: FGF18: FGF activator; member of the FGF8 subfamily of secreted signaling proteins (protein, UniProt O76093 28-207, looked up)
Fibroblast growth factor 18: EENVDFRIHVENQTRARDDVSRKQLRLYQLYSRTSGKHIQVLGRRISARGEDGDKYAQLLVETDTFGSQVRIKGKETEFYLCMNRKGKLVGKPDGTSKECVFIEKVLENNYTALMSAKYSGWYVGFTKKGRPRKGPKTRENQQDVHFMKRYPKGQPELQKPFKYTTVTKRSRRIRPTHPA
With B1, the “mRNA expression level of EN1” value in assay [1] and in assay [2] was “higher expression level of EN1” each time. For the same molecule, in assay [2], the “mRNA expression level of PITX2” value is listed as “lower expression level of PITX2”. In addition, the “striatal innervation with fibers” value in assay [3] (1 month post grafting, WNT-boost+FGF18 vs WNT-boost) is reported as “better striatal innervation”. Also, the “maintenance of EN1 expression in vivo” value in assay [3] (cells from WNT-boost+FGF18 protocol vs WNT-boost protocol, grafted) is on record as “improved maintenance of EN1 expression in vivo”. For the same molecule, the “neurite outgrowth from grafted region” value in assay [4] (FGF18 treated cells (WNT-Boost+FGF18 protocol) vs WNT-Boost) is given as “better neurite outgrowth from grafted region”. For the same molecule, in assay [4] (sorted mDAs from WNT-Boost+FGF18 (day 12-day 16) protocol), the “cell survival of graft” value is “excellent cell survival”. Further, the “mRNA expression level of SMA” value in assay [5] (day 16 of differentiation, 100 ng/ml from day 12 to day 16, compared with FGF8b) is given as “reduced mRNA expression level of SMA”. The “EN1 protein expression (immunostaining)” value in assay [5] (day 16 of differentiation, FGF added from day 9-15 to day 16 to Wnt-Boost protocol) was “highly maintained in a FGF18 contacting duration dependent manner”. Further, in assay [5] (day 27 and day 40 (FIG. 8)), the “EN1 expression at the mature stage of differentiation” value is listed as “still highly maintained”. Moreover, in assay [5] (mature stage, FGF18 vs FGF8b treated cells), the “expression levels of SMA1 and SIX1” value was “less expression levels of SMA1 and SIX1 than FGF8b treated cells”. Moreover, the “expression level of PITX2” value in assay [5] (mature stage, compared to cells differentiated by the WNT-Boost protocol) was “reduced expression level of PITX2”.
